Assay results from publication PMC6238531, “The ER morphology-regulating lunapark protein induces the formation of stacked bilayer discs” (Life Science Alliance, 2018).

Molecular target: T1, SBP-tagged full-length human Lnp (human, UniProt Q9C0E8 1-428)
T1 construct: lunapark (Lnp), human, full length; a tobacco etch virus protease cut site stands between Lnp and the SBP tag; Membrane protein with two TM segments, kept in 0.05% Triton X-100 in the pull-down; also called lunapark; SBP-tagged human Lnp; source: S. cerevisiae (pRS425, GAL1 promoter), purified in Triton X-100 (streptavidin resin, biotin elution, SEC on Superose 6); not shown: SBP, C-terminal, kept
T1 sequence (looked up): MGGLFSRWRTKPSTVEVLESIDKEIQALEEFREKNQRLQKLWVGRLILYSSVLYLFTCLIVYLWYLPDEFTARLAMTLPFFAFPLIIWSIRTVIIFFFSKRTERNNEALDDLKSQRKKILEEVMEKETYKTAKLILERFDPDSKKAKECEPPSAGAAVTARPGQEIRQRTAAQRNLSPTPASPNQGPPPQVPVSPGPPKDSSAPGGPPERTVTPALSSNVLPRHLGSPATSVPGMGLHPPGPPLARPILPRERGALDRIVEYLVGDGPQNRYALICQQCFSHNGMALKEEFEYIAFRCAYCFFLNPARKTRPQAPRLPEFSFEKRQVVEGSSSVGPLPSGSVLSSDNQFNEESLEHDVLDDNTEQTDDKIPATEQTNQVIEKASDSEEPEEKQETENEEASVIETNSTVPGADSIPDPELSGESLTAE
Experiment: pull-down; SBP-tagged human Lnp mixed with His10-tagged Lnp (molar ratio 1:3 or 1:5), 1 h at 4°C in 20 mM Hepes pH 7.5, 100 mM KCl, 1 mM dithiothreitol, 0.05% Triton X-100; held on streptavidin resin, washed, eluted with 2 mM biotin; SDS-PAGE and Coomassie blue staining
Conditions: both partners purified

binding result: binds
B1: His10-tagged full-length human Lnp (natural protein, UniProt Q9C0E8 1-428, looked up)
chain: T1 sequence (looked up)
notes: lunapark (Lnp), human, full length, cloned into pET21b; also called lunapark; source: E. coli BL21-CodonPlus (DE3)-RIPL, purified in Triton X-100 (Ni-NTA, SEC on Superose 6); not shown: His10, C-terminal, kept
